Among the data in the RNAGym collection of RNA variant scans (doi:10.7554/elife.80360) are self-cleavage values, retold here.

B1: HDV Ribozyme (parent)
chain: GGCCGGCAUGGUCCCAGCCUCCUCGCUGGCGCCGGCUGGGCAACAUUCCGAGGGGACCGUCCCCUCGGUAAUGGCGAAUGGGACCCA

The variants in this series derive from B1. As to the kind of experiment: self-cleavage, relative activity (ratio to wild type); higher = more cleavage; co-transcriptional.
With C26A G67C, the self-cleavage came out at 0.985.
Take G40A U46C: the self-cleavage is 0.525.
As to C48U C84A, the self-cleavage was 0.958.
With U9G C48A the figure was 1.25.
As for A51U A71C, the self-cleavage was found to be 0.856.
Regarding U12C G59A, the self-cleavage stood at 0.185.
With G67U C84U the figure was 0.771; with C44G G82U, 0.232; with G10A C75U, 0.0992.
Consider C4A U20A, for which the self-cleavage was 0.0386.
With G50A G73U the figure was 0.369; with G1A G2A, 0.457; with A42U G81U, 0.145.
As to G6U C84U, the self-cleavage was found to be 0.208.
As for C4U A78C, the self-cleavage was 0.0378.
For the variant G53C C64A, the self-cleavage was 0.724.
Regarding A8C U12A, the self-cleavage was 0.
As to C30A C32U, the self-cleavage amounted to 0.171.
With U27C C75A the figure was 0.155; with U20G A51G, 0.145; with U47A G76U, 0.742.
For the variant U12A C21A, the self-cleavage stood at 0.0678.
To A43U C61U belongs 0.302; to U69A G73A, 0.619; to U27A C44A, 0.369.
To G17A C64A belongs 0.645; to C32U C63G, 0.721.
For the variant C21U C66G, the self-cleavage is 0.277.
With C62G G68A the figure was 0.199; with C30U A87G, 0.699.
Turning to G5C G52A, the self-cleavage worked out at 0.252.
With G11A C15A the figure was 0.108.
Regarding A16C G59C, the self-cleavage turned out to be 0.974.
As for C24G G73C, the self-cleavage stood at 0.107.
As for C30A G53U, the self-cleavage was determined as 0.443.
On to C86G A87G, for which the self-cleavage is 0.905.
Turning to G1U C66A, the self-cleavage was 0.535.
With G31C G40A, the self-cleavage stood at 0.406.
Turning to C49G G50A, the self-cleavage was 0.793.
Regarding G39C C48A, the self-cleavage turned out to be 0.125.
As to G53C C57G, the self-cleavage was 1.14.
Take A77C A87U: the self-cleavage is 0.466.
U27C G73A: the self-cleavage worked out at 0.231.
To C22A A78G belongs 0.0369.
As to C26A U37G, the self-cleavage was 0.19.
For the variant C58G U65A, the self-cleavage amounted to 0.944.
As for G40C A83U, the self-cleavage came out at 0.
Turning to U69G G74A, the self-cleavage is 0.614.
Turning to C33U G52U, the self-cleavage turned out to be 0.747.
With C33U G52A, the self-cleavage amounted to 0.71.
Regarding C3G A87G, the self-cleavage was 0.708.
Regarding U12C C49G, the self-cleavage turned out to be 0.199.
For A43U G54A, the self-cleavage worked out at 0.487.
As for C41U G55A, the self-cleavage worked out at 1.06.
Regarding C49G G74C, the self-cleavage worked out at 0.192.
Regarding C19A A77G, the self-cleavage is 0.0302.
In the case of C26A U27G, the self-cleavage came to 0.733.
As to G6U C49G, the self-cleavage turned out to be 0.306.
Turning to C4U U27A, the self-cleavage is 0.246.
Turning to G2A G76U, the self-cleavage worked out at 0.332.
With U47C C49A the figure was 0.95; with U27A C62G, 0.929; with G67C U69A, 0.96.
Turning to G6U A70G, the self-cleavage is 0.571.
With U20G G54U, the self-cleavage came to 0.125.
C18G C66U: the self-cleavage was determined as 0.166.
With A42U G67A the figure was 0.47; with C7U G11U, 0.16; with C57U C75G, 0.0369.
C13A U23C: the self-cleavage was 0.271.
Take C4U G73A: the self-cleavage was determined as 0.293.
On to G5C C58U, for which the self-cleavage came to 0.293.
With G28U C48G the figure was 0.161; with A42U G54U, 0.465.
To C7A C26U belongs 0.919; to G28A C61A, 0.0791.
Regarding C44G C64A, the self-cleavage is 0.745.
Regarding C21U G68A, the self-cleavage amounted to 0.252.
Regarding C3G A8G, the self-cleavage was determined as 0.767.
To G11U G34C belongs 0.166.
In the case of G55C A56G, the self-cleavage worked out at 1.15.
As to G25U A71G, the self-cleavage is 0.101.
To U47C C66G belongs 1.17; to A71U A78G, 0.59.
Consider G5C G74C, for which the self-cleavage was 0.0978.
Regarding C22U A71C, the self-cleavage turned out to be 0.623.
For the variant A42C A51U, the self-cleavage came out at 0.369.
With C3U G54U the figure was 0.732.
For A51C G82U, the self-cleavage was 0.386.
To U9C G54U belongs 0.937; to U47G G54C, 0.928.
With A8G C19G the figure was 0.0594; with A78U C85G, 0.326; with G54A G82U, 0.205.
As to C4U G39C, the self-cleavage came to 0.0536.
Take C19A A78G: the self-cleavage came to 0.0845.
With U60G A70U the figure was 0.969.
Regarding G40C C62U, the self-cleavage came to 0.324.
Consider U47A G81U, for which the self-cleavage is 0.219.
Take C13A C26G: the self-cleavage is 0.657.
For the variant G17C U20C, the self-cleavage amounted to 0.
To C32A A51U belongs 0.256; to G28U U47C, 0.297; to C48A C63G, 0.73.
Consider C44G U79G, for which the self-cleavage amounted to 0.196.
With C14G A42G the figure was 0; with G11A A56C, 0.298.
As to U12A G38A, the self-cleavage worked out at 0.
As for U72C C84A, the self-cleavage stood at 0.166.
As to A16U G67A, the self-cleavage stood at 0.988.
Consider G17C C24A, for which the self-cleavage came out at 0.0519.
For the variant A8U A42G, the self-cleavage was found to be 0.111.
With G80U G82C, the self-cleavage stood at 0.332.
Consider C44U G55U, for which the self-cleavage amounted to 0.831.
Take C7G G39C: the self-cleavage was determined as 0.
For the variant C4G G50U, the self-cleavage came out at 0.527.
For the variant U20A U65C, the self-cleavage stood at 0.0639.
Take C61U C63U: the self-cleavage turned out to be 0.958.
G68U A77G: the self-cleavage turned out to be 0.578.
On to C49G G82C, for which the self-cleavage was 0.16.
For the variant G17U G59A, the self-cleavage was 0.465.
As for G11C A71G, the self-cleavage is 0.277.
G6A A16U: the self-cleavage was determined as 0.446.
Consider C26A A78C, for which the self-cleavage was 0.284.
As to G76A G81C, the self-cleavage was 0.302.
As for G28A A70U, the self-cleavage was found to be 0.203.
With U46C U65C the figure was 1.2; with C18A U37C, 0.0361; with U69C A78U, 0.375.
As to C3G G6A, the self-cleavage was found to be 0.0923.
As to C18G C64G, the self-cleavage is 0.156.
In the case of C33A C48G, the self-cleavage stood at 0.125.
For the variant A8U G74U, the self-cleavage is 0.173.
Consider G73C C85G, for which the self-cleavage is 0.527.
As to G68C A87U, the self-cleavage worked out at 0.799.
With G82U A87U the figure was 0.462.
With C48A G68C the figure was 0.707; with A83C C86A, 0.554.
Regarding C22A G55C, the self-cleavage was 0.262.
With C15G A78C, the self-cleavage stood at 0.
As to G39U C41G, the self-cleavage was 0.46.
Take G28A A77G: the self-cleavage was 0.111.
On to C19G C86G, for which the self-cleavage was 0.104.
Regarding C36G C49A, the self-cleavage was determined as 0.138.
As to G35C G80U, the self-cleavage amounted to 0.043.
Take G5U U65A: the self-cleavage amounted to 0.453.
Turning to C13A C30G, the self-cleavage came to 0.0282.
Turning to G50C U65A, the self-cleavage was 0.919.
With C13U A83G, the self-cleavage was 0.122.
Take G2C C22A: the self-cleavage was 0.114.
In the case of G5U C75U, the self-cleavage came to 0.0573.
With C7A G39A, the self-cleavage worked out at 0.0739.
C18U G80U: the self-cleavage came out at 0.0989.
To U46C G82U belongs 0.138; to A51U G82A, 0.543.
In the case of C24U G29A, the self-cleavage amounted to 0.0415.
With G1U C41A, the self-cleavage stood at 0.496.
With G59C C84G the figure was 0.831.
In the case of G25U U72C, the self-cleavage stood at 0.111.
Take U47G G74U: the self-cleavage is 0.434.
In the case of G40U A83G, the self-cleavage was 0.597.
A43C C63U: the self-cleavage came out at 0.529.
In the case of G54C G59U, the self-cleavage is 1.15.
In the case of G40A C86U, the self-cleavage stood at 0.989.
With A8C A42C the figure was 0.201.
Regarding C3G G53A, the self-cleavage was found to be 0.742.
Regarding G6C G82A, the self-cleavage stood at 0.
